Results: publication PMC6431553
Where two headings read alike, the source gives them in different places.

Tests used:
[1] = biological target: recombinant murine PrP 23–231 (murine) (UniProt P04925); test: ELISA
[2] = biological target: recombinant murine PrP 23–231 (murine) (UniProt P04925); test: ELISA; remark: listed apart in the source

Chain of UniProt P04925 (P04925 23-231): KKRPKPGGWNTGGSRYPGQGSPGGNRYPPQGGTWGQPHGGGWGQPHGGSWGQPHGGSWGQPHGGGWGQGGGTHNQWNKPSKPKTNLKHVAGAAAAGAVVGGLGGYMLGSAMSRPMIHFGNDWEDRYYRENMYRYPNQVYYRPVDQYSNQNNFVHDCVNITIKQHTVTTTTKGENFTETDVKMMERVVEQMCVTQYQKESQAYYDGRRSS

| Substance | EC50 [1] [nM] | EC50 [2] [nM] |
| --- | --- | --- |
| Aβ1–42 fibrils (peptide) | 1730 | – |
| Aβ-derived diffusible ligands (ADDLs), a preparation of Aβ1–42 (peptide) | 234 | 113 |
